This is an account of results in patent US20240336926.

Read-outs that look alike come from different tables or passages of the source.

The subject of data set [1] is K-RAS G12D G12D, P01116-2. As to conditions: Nap-dU at all n positions; plate ELISA, buffer SB18, 37 C, R2 97.1. On the technique in general: ELISA stands for enzyme-linked immunosorbent assay.
In data set [2] the target is Human serum albumin (HSA) (Homo sapiens) (UniProt P02768). As to conditions: Nap-dU at all n positions, plate ELISA, buffer SB18, 37 C.

GCATAAGTCCGGATGGCAGCTTTATGC [AD008]: the Kd in data set [1] was 287 nM. “GCATAAGTCCGGATGGCAGCTTTATGCCGACC [AD007]” gave a Kd in data set [2] (R2 97.0) of 536 nM.

With “GACTAGCATAAGTCCGGATGGCAGCTTTATGCCG [AD006]”, the Kd in data set [2] (R2 75.9) is 939 nM.

One may read the Kd as a measure of binding affinity in units of concentration.
